Measurements: PMC4654587

Legend:
[1] = target: His6-CsuA/B (N-terminal donor strand sequence replaced by a His6-tag); conditions: parent: est. 1.0; read off a plot
[2] = target: His-tagged EcpB (wild type) (Escherichia coli) (UniProt P77188); experiment: SEC

Row | Substance | ratio to parent [1] | stoichiometry N [2]
1 | CsuC (wild type, without tag) R89A | 0.15 | –
2 | CsuC (wild type, without tag) R89A; Y196F | 0.02 | –
3 | CsuC (wild type, without tag) R174A | 0.5 | –
4 | CsuC (wild type, without tag) Y196F | 0.13 | –
5 | EcpA with a Trp11Ala mutation (from UniProt P0AAA3 23-195) (natural protein) | – | 1
